Results: paper PMC7026633

Target: Flag-tagged phosphor-mutant (AA: S1310A, S1379A) full-length human Tet3 (lentiviral) (human) (UniProt O43151)
Experiment: co-IP; Tet3 KO mouse ESCs stably expressing Flag-tagged Wt or AA human Tet3; lysate in TBST buffer (50 mM Tris-HCl pH 7.4, 150 mM NaCl, 1 mM EDTA, 1% Triton X-100); IP overnight with anti-Flag M2 affinity gel or mouse IgG agarose, washed four times with TBST; blot for FLAG and H2A.Z

fold change of H2A.Z pulled down, against wild-type Tet3: 2 fold
Substance: histone variant H2A.Z (endogenous, mouse ESCs) (from UniProt P0C0S6 1-128) (natural protein)
